{"source": "patent US20050042631A1", "about": "(US Dept. of Health and Human Services, published 2005)", "binders": {"B1": {"name": "GST-RS (GST-fused RS domain of ASF/SF2) (other, UniProt Q07955 198-248, looked up)", "chain": "RSPSYGRSRSRSRSRSRSRSRSNSRSRSYSPRRSRGSPRYSPRHSRSRSRT", "notes": "domain: RS domain; not shown: glutathione-S-transferase"}}, "molecular_target": "T1, GST-K-p52 (human, UniProt O75475 1-325, 32P-labeled by HMK where used as Farwestern probe)", "T1 construct": "The Nru I-EcoR V fragment of p52 cDNA was put in pGEX-2T(K); also called GST-p52; p52 probe; not shown: glutathione-S-transferase from the pGEX-2T(K) vector; heart muscle kinase (K) site and vector linker", "T1 sequence (O75475 other isoform, or with tags, fused parts or gaps)": "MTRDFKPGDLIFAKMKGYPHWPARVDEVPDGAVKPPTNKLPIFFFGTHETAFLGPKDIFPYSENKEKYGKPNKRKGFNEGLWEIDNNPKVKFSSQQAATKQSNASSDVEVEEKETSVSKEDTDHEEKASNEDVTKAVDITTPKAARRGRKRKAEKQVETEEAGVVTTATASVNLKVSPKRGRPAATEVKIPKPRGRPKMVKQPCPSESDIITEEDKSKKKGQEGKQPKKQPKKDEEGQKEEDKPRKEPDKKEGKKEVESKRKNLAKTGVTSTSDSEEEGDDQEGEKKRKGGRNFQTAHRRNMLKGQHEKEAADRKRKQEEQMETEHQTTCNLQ", "test": "Farwestern blot with 32P-labeled GST-K-p52"}
{"binder": "B1", "values": [{"measurement": "binding result", "value": "no binding"}]}
